Experimental data published in patent US20040265809A1 (published 2004).

Target: T1, rat RORβ ligand-binding domain (RORβ-LBD), residues 201-452, polyhistidine-tagged (rat, UniProt P45446 212-463)
T1 construct: Expressed in E. coli; The ligand pocket holds stearic acid (first crystal) or all-trans retinoic acid (second crystal); One monomer per asymmetric unit; also called rRORβ-LBD; RORbeta LBD; not shown: N-terminal polyhistidine tag and thrombin cleavage site from the pet15b vector (Novagen); the tagge
T1 sequence: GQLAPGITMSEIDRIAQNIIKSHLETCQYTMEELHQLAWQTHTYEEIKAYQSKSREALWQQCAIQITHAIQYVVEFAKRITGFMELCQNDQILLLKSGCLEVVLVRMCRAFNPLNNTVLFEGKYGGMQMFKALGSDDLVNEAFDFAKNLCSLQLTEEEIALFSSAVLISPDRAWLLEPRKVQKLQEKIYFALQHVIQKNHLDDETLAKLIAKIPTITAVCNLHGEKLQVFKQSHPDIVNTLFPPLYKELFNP
Experiment: co-crystallisation, hanging drop, stearate complex
Description: The RORβ-LBD stearate complex was crystallized at 22° C. by vapor diffusion in the hanging-drop mode. In the crystallisation trials, the protein was used without further purification and co-crystallized with a 3-molar excess of SRC-1⁶⁸⁶⁻⁷⁰⁰([…]) NR-interacting peptide co-activator sequence. Addition of the peptide was crucial to obtain crystals. In the initial trial to obtain crystallization conditions, a sparse matrix crystallization screen was done with a home screen. For each crystallization trial, a 4 μl drop was prepared by mixing 2 μl of purified protein (5.8 mg/ml) with an equal volume of reservoir solution. The reservoir contained 500 μl of the precipitating solution. A crystal measuring […] at 22° C. in PEG 6000 15% and 100 mM Tris HCl at pH=8.0 grew within about 2 weeks. This crystal was used in a first data collection run (as described below).

binding result: binds
B1: SRC-1 686-700 NR-interacting co-activator peptide (peptide)
peptide: RHKILHRLLQEGSPS
notes: also called SRC1 peptide
